Experimental data published in patent publication US20110123534A1 (ERASMUS UNIVERSITY MEDICAL CENTER ROTTERDAM, published 2011).

Target: Rac1 (endogenous in HUVEC lysate) (human, UniProt P63000 1-189)
Test: co-immunoprecipitation with anti-FGD5 antibody from lysates of FGD5 overexpressing HUVECs, western blot
Protocol: GTP-RhoA, Rac1, and cdc42 activation levels were measured using the G-lisa detection system (Tebu-Bio, The Netherlands). For FGD5-protein complex co-immunoprecipitation, magnetic beads (Dynabeads, Invitrogen, The Netherlands) were coated and cross-linked with 2.5 μg anti-FGD5 antibody (Bioscience, The Netherlands) before immunoprecipitation overnight at 4° C. with protein cell lysates of transfected HUVECs (50 μg total protein of a volume of 100 μl incubation buffer). Beads were washed and the protein samples were eluted with eluation buffer (Invitrogen, The Netherlands) before analysis by western blot.

B1: FYVE, RhoGEF and PH domain-containing 5 (FGD5), human, overexpressed in HUVECs by adenovirus (Ad-FGD5) (other)
chain: MFRGPKPPIAPKPRLTAPNEWRASVYLNDSLNKCSNGRLPCVDRGLDEGPRSIPKCSESETDEDYIVVPRVPLREDEPKDEGSVGNKALVSPESSAEEEEEREEGGEACGLEGTGAGEDSVAPAAPGAGALSREGEEGTDLALEDEGEGCADEPGTLEQVSRSEEEEKLVQPHRECSLEDSGPWAGEGVFQSDLLLPHIHGEDQEPPDTPGEAEEDDEEGCASTDPAGADEGSGPDRPTEDMGQDAEDTSEEPPEKEELAGVQEAETATDCPEVLEEGCEEATGVTGGEQVDLSEPPDHEKKTNQEVAAATLEDHAQDESAEESCQIVPFENDCMEDFVTSLTGSPYEFFPTESTSFCSESCSPLSESAKGLESEQAPKLGLRAEENPMVGALCGQCGSLQGGAAEGPAAPDVVVVLEEEALDDALANPYVMGVGLPGQAAPGEGGQAASDALGGYGSKEELNCEAEGGLVPADRKNTSTRVRPHSGKVAGYVPETVPEETGPEAGSSAPGIGGAAEEVGKTLLSLEGKPLEASRALPAKPRAFTLYPRSFSVEGREIPVSVYQEPEGSGLDDHRIKRKEDNLSLSCVIGSSGSFSQRNHLPSSGTSTPSSMVDIPPPFDLACITKKPITKSSPSLLIESDSPDKYKKKKSSFKRFLALTFKKKTENKLHVDVNVSSSRSSSESSYHGPSRILEVDRRSLSNSPQLKSRTGKLRASESPSSLIFYRDGKRKGVPFSRTVSRVESFEDRSRPPFLPLPLTKPRSISFPSADTSDYENIPAMNSDYENIQIPPRRPARAGAFTKLFEDQSRALSTANENDGYVDMSSFNAFESKQQSADQDAESAYTEPYKVCPISSAAPKEDLTSDEEQRSSEEEDSASRDPSVTHKVEGQSRALVIAQELLSSEKAYVEMLQHLNLDFHGAVMRALDDMDHEGRDTLAREELRQGLSELPAIHDLHQGILEELEERLSNWESQQKVADVFLAREQGFDHHATHILQFDRYLGLLSENCLHSPRLAAAVREFEQSVQGGSQTAKHRLLRVVQRLFQYQVLLTDYLNNLCPDSAEYDNTQGALSLISKVTDRANDSMEQGENLQKLVHIEHSVRGQGDLLQPGREFLKEGTLMKVTGKNRRPRHLFLMNDVLLYTYPQKDGKYRLKNTLAVANMKVSRPVMEKVPYALKIETSESCLMLSASSCAERDEWYGCLSRALPEDYKAQALAAFHHSVEIRERLGVSLGERPPTLVPVTHVMMCMNCGCDFSLTLRRHHCHACGKIVCRNCSRNKYPLKYLKDRMAKVCDGCFGELKKRGRAVPGLMRERPVSMSFPLSSPRFSGSAFSSVFQSINPSTFKKQKKVPSALTEVAASGEGSAISGYLSRCKRGKRHWKKLWFVIKGKVLYTYMASEDKVALESMPLLGFTIAPEKEEGSSEVGPIFHLYHKKTLFYSFKAEDTNSAQRWIEAMEDASVL
notes: Guanine-nucleotide exchange factor; Made with the pAd/CMV/V5 gateway system; also called Ad-FGD5 transgene product
binding result: no binding
